Measurements as given in patent US20220257825A1.

Biological target: cell adhesion mediating proteins (CAMP), e.g. integrins, on the cells of the pig skin
Test: cell-based or functional assay

B1: C16spRGD (eADF4 (C16) genetically fused at the C-terminus to the tag spRGD, …) (protein)
chain: MASMTGGQQMGRGSMGSSAAAAAAAASGPGGYGPENQGPSGPGGYGPGGPGSSAAAAAAAASGPGGYGPENQGPSGPGGYGPGGPGSSAAAAAAAASGPGGYGPENQGPSGPGGYGPGGPGSSAAAAAAAASGPGGYGPENQGPSGPGGYGPGGPGSSAAAAAAAASGPGGYGPENQGPSGPGGYGPGGPGSSAAAAAAAASGPGGYGPENQGPSGPGGYGPGGPGSSAAAAAAAASGPGGYGPENQGPSGPGGYGPGGPGSSAAAAAAAASGPGGYGPENQGPSGPGGYGPGGPGSSAAAAAAAASGPGGYGPENQGPSGPGGYGPGGPGSSAAAAAAAASGPGGYGPENQGPSGPGGYGPGGPGSSAAAAAAAASGPGGYGPENQGPSGPGGYGPGGPGSSAAAAAAAASGPGGYGPENQGPSGPGGYGPGGPGSSAAAAAAAASGPGGYGPENQGPSGPGGYGPGGPGSSAAAAAAAASGPGGYGPENQGPSGPGGYGPGGPGSSAAAAAAAASGPGGYGPENQGPSGPGGYGPGGPGSSAAAAAAAASGPGGYGPENQGPSGPGGYGPGGPGGGSGGRGDSPG
- Average σmax (N), pulling test on pig skin stripes, 35 mg/ml, 30 min incubation: 5.29 N
- average maximal adhesion strength compared with C16 (no RGD), pulling test on pig skin: 80%
